# Columns and labels:
# [1] = test system: human Mo-DCs; assay: Apoptosis determination (Annexin V / 7-ADD); format: cell-based; set-up: key: (−) negligible; (+) low; (++) moderate; (+++) high; details: viability; treated and LPS-induced DCs
# Excerpt: Double staining using with the fluorescent dyes Annexin V (Annexin V-PE Apoptosis Detection Kit I, BD Pharmigen, San Diego, Calif.) and 7-amino-actinomycin D (7-ADD) (BD Pharmigen), and flow cytometry analysis, was employed to assess the viability/apoptosis status of C4BP α7β1-, C4BP α7β0-, recC4BP α6β0-, or Factor H-treated and untreated Mo-DCs.
# [2] = test system: LPS-matured DCs; assay: Phenotype stability after re-stimulation with TNF-alpha+IFN-gamma; format: cell-based, human; details: TNF-alpha+IFN-gamma for 24 h without immunomodulatory agents
# Description: The stability of C4BP(β−)- or FH-treated and LPS-matured DCs was evaluated after further 24 h of induction with pro-inflammatory TNF-alpha (100 U/ml)+IFN-gamma (1000 U/ml) in complete medium without immunomodulatory agents (C4BP(β−) or FH). Median fluorescence intensities (MIF) of DC markers CD83 (A) and CD86 (B) were determined for all DC conditions (with or without TNF-alpha+IFN-gamma). iDC, immature DCs; mDC, untreated LPS-matured DCs; B-5, C4BP(β−)-treated (5 μg/ml) and LPS-matured DCs; WT5, C4BP(β+)-treated (5 μg/ml) and LPS-matured DCs; Rec2, recombinant C4BP(β−)-treated (2 μg/ml) and LPS-matured DCs; FH5, FH-treated (5 μg/ml) and LPS-matured DCs (n=6 per group).
# Due to their potential use in the clinical setting, we aimed to study whether an ulterior activation of C4BP(β−)- or FH-treated and LPS-matured DCs would modify the phenotype of these tolerogenic DCs. Therefore, both untreated and C4BP(β−)- or FH-treated DCs were matured with LPS, as previously mentioned, and then re-stimulated without immunomodulatory agents (C4BP(β−) or FH) using TNF-alpha+IFN-gamma for 24 h. […] These tolerogenic C4BP(β−)- or FH-treated DCs were thus phenotypically refractory to secondary stimulation, confirming their stable non-proinflammatory profile.
molecule,measurement,setting,value
"C4BP (β^−): C4BP isoforms lacking beta chain: C4BP (α7β0) or C4BP (α6β0) (protein, UniProt P04003 49-597, looked up) C4b-binding protein alpha …: NCGPPPTLSFAAPMDITLTETRFKTGTTLKYTCLPGYVRSHSTQTLTCNSDGEWVYNTFCIYKRCRHPGELRNGQVEIKTDLSFGSQIEFSCSEGFFLIGSTTSRCEVQDRGVGWSHPLPQCEIVKCKPPPDIRNGRHSGEENFYAYGFSVTYSCDPRFSLLGHASISCTVENETIGVWRPSPPTCEKITCRKPDVSHGEMVSGFGPIYNYKDTIVFKCQKGFVLRGSSVIHCDADSKWNPSPPACEPNSCINLPDIPHASWETYPRPTKEDVYVVGTVLRYRCHPGYKPTTDEPTTVICQKNLRWTPYQGCEALCCPEPKLNNGEITQHRKSRPANHCVYFYGDEISFSCHETSRFSAICQGDGTWSPRTPSCGDICNFPPKIAHGHYKQSSSYSFFKEEIIYECDKGYILVGQAKLSCSYSHWSAPAPQCKALCRKPELVNGRLSVDKDQYVEPENVTIQCDSGYGVVGPQSITCSGNRTWYPEVPKCEWETPEGCEQVLTGKRLMQCLPNPEDVKMALEVYKLSLEIEQLELQRDSARQSTLDKEL",Apoptosis after treatment,[1],−
same,DC phenotype regarding the CD83 and CD86 markers after re-stimulation,[2],did not induce significant changes
same,DC viability after re-stimulation,[2]; not shown,did not induce significant changes

# From patent US10106589B2, “Compositions and methods for immunomodulation” (FUNDACIO INSTITUT D'INVESTIGACIO BIOMEDICA DE BELLVITGE …, priority 2011, dated 2018)
